Assay results as given in article PMC10827139.
Where two headings read alike, the source gives them in different places.

Tests used:
Test in all cases: crystal structure
[1] = biological target: His-ICP0 (HSV-1 strain KOS infected cell protein 0, residues A636-Q776) (herpes simplex virus 1 (HSV-1), strain KOS)
[2] = biological target: His-ICP0 (HSV-1 strain KOS infected cell protein 0, residues A636-Q776) (herpes simplex virus 1 (HSV-1), strain KOS); remark: listed apart in the source
[3] = biological target: proteolytic fragment of his-ICP0 391-776 (HSV-1 strain KOS) that crystallised (herpes simplex virus 1 (HSV-1), strain KOS)

Substance	stoichiometry N [1]	stoichiometry N [2]	stoichiometry N [3]
His-ICP0 (HSV-1 strain KOS infected cell protein 0, residues A636-Q776) (domain or fragment)	4	2	
proteolytic fragment of his-ICP0 391-776 (HSV-1 strain KOS) that crystallised (domain or fragment)			2
